Biological target: CRMP1 (human, UniProt Q14194)
Assay: ELISA

EC50: 69 nM
B1: NI-504.3E7 (antibody, V domains shown)
VH: EVQLVETGGGFVQPGGSLQLSCAVSGFPYSGTSFHWVRQVSGKGLEWIGRIRSKSDNYETSYTESLKGRFIVSRDDSKNMVRLHLYSLRTEDTALYYCTTGIIVVDTSYLDHWGRGTLVTVSS
VL: SYELTQPPSASVSPGQTARITCSGAALPKKYAYWYQLKSGQAPVLVIYEDTKRPSGIPERFSGSSSGTLATLTINGALVEDEADYYCYSTDSSGDVWVFGGGTKLTVL

— patent US20260356928 (published 2026)
